Measured values reported in paper PMC5971111 (Nature structural & molecular biology, 2018).

T1: Sec8 (S. cerevisiae, UniProt P32855 1-1065)
T1 sequence: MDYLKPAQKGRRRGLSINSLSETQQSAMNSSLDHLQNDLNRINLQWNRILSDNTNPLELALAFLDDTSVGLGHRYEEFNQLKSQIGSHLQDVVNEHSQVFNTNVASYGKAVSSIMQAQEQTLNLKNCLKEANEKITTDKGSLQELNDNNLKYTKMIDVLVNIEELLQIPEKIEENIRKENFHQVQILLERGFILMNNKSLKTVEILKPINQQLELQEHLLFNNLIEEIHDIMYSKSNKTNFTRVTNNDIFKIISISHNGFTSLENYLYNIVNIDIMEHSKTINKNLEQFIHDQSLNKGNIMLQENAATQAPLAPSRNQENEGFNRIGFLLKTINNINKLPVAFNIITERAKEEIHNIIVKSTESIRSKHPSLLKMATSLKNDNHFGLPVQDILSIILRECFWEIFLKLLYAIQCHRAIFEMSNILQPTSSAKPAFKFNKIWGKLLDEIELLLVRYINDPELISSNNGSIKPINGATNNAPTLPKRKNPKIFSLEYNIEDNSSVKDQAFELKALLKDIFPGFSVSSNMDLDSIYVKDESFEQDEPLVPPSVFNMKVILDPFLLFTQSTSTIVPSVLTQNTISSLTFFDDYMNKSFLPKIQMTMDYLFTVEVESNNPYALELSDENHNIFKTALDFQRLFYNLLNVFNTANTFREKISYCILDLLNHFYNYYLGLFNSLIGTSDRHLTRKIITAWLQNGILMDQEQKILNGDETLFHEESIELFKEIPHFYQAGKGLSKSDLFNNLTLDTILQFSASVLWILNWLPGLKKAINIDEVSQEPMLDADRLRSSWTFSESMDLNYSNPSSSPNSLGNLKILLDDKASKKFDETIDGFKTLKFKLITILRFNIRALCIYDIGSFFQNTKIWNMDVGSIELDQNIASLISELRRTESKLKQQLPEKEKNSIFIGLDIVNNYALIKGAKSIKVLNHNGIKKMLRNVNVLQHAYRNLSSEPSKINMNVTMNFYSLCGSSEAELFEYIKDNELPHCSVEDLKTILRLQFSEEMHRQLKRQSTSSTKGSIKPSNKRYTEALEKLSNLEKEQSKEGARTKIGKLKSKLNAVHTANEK

T2: Sec15 (S. cerevisiae, UniProt P22224 1-910)
T2 sequence: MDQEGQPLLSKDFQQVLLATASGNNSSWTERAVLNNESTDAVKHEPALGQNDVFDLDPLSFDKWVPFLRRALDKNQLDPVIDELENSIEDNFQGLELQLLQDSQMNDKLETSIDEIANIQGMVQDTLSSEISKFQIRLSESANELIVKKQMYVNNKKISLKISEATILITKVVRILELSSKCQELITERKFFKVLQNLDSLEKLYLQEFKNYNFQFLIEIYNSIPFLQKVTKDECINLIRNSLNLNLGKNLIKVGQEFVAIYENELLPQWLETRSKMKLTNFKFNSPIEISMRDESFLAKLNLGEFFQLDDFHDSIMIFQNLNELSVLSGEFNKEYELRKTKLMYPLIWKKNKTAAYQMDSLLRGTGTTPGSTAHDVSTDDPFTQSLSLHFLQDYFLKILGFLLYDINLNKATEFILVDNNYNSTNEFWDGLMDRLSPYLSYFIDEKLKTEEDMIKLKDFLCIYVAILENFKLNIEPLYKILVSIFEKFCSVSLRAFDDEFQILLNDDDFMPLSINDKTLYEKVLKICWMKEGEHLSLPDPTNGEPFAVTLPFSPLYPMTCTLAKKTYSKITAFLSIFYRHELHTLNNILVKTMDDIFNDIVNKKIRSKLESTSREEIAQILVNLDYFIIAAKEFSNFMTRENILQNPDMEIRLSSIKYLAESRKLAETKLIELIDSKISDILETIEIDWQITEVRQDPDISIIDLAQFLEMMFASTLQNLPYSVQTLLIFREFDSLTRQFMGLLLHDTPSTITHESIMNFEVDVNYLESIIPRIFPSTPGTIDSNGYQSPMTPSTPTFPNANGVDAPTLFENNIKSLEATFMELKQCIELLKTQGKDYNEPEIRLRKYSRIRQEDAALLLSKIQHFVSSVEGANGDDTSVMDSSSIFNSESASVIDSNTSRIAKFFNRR

T3: Sec3 (S. cerevisiae, UniProt P33332 1-1336)
T3 sequence: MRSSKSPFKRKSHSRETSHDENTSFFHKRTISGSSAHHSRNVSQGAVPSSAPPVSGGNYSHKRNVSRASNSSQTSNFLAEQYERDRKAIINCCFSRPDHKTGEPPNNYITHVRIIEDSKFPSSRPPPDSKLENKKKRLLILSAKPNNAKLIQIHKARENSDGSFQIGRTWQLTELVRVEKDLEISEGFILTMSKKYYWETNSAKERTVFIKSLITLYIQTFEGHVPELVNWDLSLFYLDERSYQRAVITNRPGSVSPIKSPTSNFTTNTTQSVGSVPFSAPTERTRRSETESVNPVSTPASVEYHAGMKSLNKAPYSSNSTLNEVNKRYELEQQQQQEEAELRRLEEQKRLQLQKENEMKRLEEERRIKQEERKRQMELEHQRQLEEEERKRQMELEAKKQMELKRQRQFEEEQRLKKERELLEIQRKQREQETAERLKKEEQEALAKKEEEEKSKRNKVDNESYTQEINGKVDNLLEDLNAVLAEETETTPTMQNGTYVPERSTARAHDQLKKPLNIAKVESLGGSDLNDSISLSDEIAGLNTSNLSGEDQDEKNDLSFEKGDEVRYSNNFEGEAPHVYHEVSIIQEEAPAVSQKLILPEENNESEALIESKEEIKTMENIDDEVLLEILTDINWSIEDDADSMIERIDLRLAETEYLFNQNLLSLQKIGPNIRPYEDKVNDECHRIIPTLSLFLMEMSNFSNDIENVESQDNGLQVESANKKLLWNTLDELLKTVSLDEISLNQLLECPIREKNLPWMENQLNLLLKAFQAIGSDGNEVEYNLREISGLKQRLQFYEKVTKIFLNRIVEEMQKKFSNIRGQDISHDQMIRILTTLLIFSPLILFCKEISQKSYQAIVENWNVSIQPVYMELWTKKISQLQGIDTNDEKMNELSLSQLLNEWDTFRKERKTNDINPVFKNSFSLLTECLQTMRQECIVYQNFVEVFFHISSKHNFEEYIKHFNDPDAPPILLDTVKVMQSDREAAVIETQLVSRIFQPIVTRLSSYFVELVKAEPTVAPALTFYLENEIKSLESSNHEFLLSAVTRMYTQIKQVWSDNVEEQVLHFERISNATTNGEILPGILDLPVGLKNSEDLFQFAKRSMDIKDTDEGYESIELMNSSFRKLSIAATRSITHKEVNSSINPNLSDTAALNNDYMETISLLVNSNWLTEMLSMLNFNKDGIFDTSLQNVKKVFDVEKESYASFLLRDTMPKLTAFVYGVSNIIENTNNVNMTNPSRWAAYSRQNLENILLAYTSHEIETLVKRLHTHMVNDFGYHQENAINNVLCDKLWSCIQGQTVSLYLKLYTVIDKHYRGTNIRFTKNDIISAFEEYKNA

T4: Sec5 (S. cerevisiae, UniProt P89102 1-971)
T4 sequence: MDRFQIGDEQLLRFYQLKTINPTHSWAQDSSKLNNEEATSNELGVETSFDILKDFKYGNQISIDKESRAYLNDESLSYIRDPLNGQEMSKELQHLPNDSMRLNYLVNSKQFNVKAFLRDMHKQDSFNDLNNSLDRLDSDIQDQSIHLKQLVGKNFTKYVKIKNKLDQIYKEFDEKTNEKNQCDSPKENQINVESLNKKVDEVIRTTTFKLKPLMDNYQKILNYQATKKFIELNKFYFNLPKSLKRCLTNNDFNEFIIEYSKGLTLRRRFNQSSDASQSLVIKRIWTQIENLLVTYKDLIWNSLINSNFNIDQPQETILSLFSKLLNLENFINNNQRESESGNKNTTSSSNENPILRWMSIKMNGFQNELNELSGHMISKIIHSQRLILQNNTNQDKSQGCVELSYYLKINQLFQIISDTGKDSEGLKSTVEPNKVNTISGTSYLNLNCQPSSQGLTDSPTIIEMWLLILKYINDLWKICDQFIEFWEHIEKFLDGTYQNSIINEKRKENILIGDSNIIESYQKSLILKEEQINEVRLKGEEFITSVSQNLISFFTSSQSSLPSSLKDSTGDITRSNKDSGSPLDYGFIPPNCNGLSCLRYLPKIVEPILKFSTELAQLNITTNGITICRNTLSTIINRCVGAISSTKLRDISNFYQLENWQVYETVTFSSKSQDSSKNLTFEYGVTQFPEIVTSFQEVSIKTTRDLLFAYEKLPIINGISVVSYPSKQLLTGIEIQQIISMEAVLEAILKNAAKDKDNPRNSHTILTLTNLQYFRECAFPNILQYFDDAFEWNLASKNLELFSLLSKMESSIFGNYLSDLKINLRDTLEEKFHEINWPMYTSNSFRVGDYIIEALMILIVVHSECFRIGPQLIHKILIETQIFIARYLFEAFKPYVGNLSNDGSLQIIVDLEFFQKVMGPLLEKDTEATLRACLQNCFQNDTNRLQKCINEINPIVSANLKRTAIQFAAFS


What was measured:
Assay in all cases: […]
[1] = target: T1, Sec8
[2] = target: T2, Sec15
[3] = target: T3, Sec3
[4] = target: T4, Sec5

Binder	binding result [1]	binding result [2]	binding result [3]	binding result [4]
Sec10 (natural protein) MNSLYELDPKWKKLLKTDNFLGGLTVNEFVQELSKDHRNDVLIDANTKNLPTNEKDQDAIREAIWKQLDPKPYIRTFESTLKELKNLNEETLNKRQYFSEQVATQEVIHSENVIKLSKDLHTTLLTFDKLDDRLTNVTQVVSPLGDKLETAIKKKQNYIQSVELIRRYNDFYSMGKSDIVEQLRLSKNWKLNLKSVKLMKNLLILSSKLETSSIPKTINTKLVIEKYSEMMENELLENFNSAYRENNFTKLNEIAIILNNFNGGVNVIQSFINQHDYFIDTKQIDLENEFENVFIKNVKFKEQLIDFENHSVIIETSMQNLINDVETVIKNESKIVKRVFEEKATHVIQLFIQRVFAQKIEPRFEVLLRNSLSISNLAYVRILHGLFTLFGKFTKSLIDYFQLLEIDDSNQILSTTLEQCFADLFSHYLYDRSKYFGIEKRSLEAILVDMTSKFTVNYDKEINKRVLLDKYKEKLSTNVDAFMHSPRGNTHSRQDSTSRSKLSQFNSFLKTHLDKDHLSLNRTNTLSDSFNNSSSSTQYDVANNSSSLVNSSFTASDIDNSPNSPANYSLNDVDSMLKCVVESTARVMELIPNKAHLYILEILKIMFLGIVDSYMEIALEVAYWKICKVDINKTAGVVNLNFLKFISMSTEILDLLSISIKSIFLPLLNNSPEIKAQIIEMTNSQIQKMEILINIILQETITVISTKFSAILCKQKKKDFVPKSQELLDQDTLPAIEIVNILNLIFEQSSKFLKGKNLQTFLTLIGEELYGLLLSHYSHFQVNSIGGVVVTKDIIGYQTAIEDWGVASLIDKFATLRELANLFTVQPELLESLTKEGHLADIGRDIIQSYISNREDFNHDNFINSVKLNFR	binds	binds	binds	
Sec6 (natural protein) MSSDPLQQVCDLIKGDLSLERVRDIKEQLLKEKSVVEYQLNKESDKYYGEVEESLKLLNLSKNSVTSIKQQINEVNKLGNDNRFAINRYDILFRATKLYETVNTTSSIYDRIYNFVALMEHIERLLVAELAEDALETGCPHLLEIHFLLTSARDFQEQVVVMAKEATEDAQRTVMKLFSRLSGIISKFDKLLDGLTYDIVEMARAEQISLAIRLFKIYDLEEREDLRIEAIRNIIKKKEIEIEKSSIKKLPNSKNTARLQDETPKVIEYPTNKGLYQEIMSGTISTRTAPRGYKHFLINGINNSISEMFGEMREKYVGDQKFDVLDNMDWIFNELIIVKEHIANCCPPHWNIFEVYFDQYYKELHSLITDLVESEPETIIILDILAFDKTFQDTLKQDFGFTKSEVKSVIGDKEKETLFKDYLNLIVVKMTEWIGNLEKAEFDVFLERSTPPHSDSDGLLFLDGTKTCFQMFTQQVEVAAGTNQAKILVGVVERFSDLLTKRQKNWISKISEEIKKQINYNHKYDIDPESITPEDECPGGLVEYLIAVSNDQMKAADYAVAISSKYGKLVSKVYEKQITNHLEGTLDGFAEVAQCSSLGLITLMFDDLRKPYQEIFSKTWYMGSQAQQIADTLDEYLLDIKPQMNSVLFVNFIDNVIGETIIKFLTALSFEHSFKNKNNKFLEAMKRDFEIFYQLFVKVLDGNESKDTLITQNFTVMEFFMDLSCEPIDSILDIWQKYLEVYWDSRIDLLVGILKCRKDVSSSERKKIVQQATEMLHEYRRNMEANGVDREPTLMRRFVLEFEKQ			binds	binds
